B1: clone 01a033 (antibody)
heavy: QVQLKQSGPELVKPGASVKISCKASGYSFTGYYMHWVKQSPEKSLEWIGEINPSTGDTTYNQKFKAKATLTVDKSSSTAYMQLKSLTSEDSAVYYCAREKRDDGVFAYWGQGTLVTVSSAKTTAPSVYPLAPVCGDTTGSSVTLGCLVKGYFPEPVTLTWNSGSLSSGVHTFPAVLQSDLYTLSSSVTVTSSTWPSQSITCNVAHPASSTKVDKKIEPRGPTIKPCPPCKCPAPNLLGGPSVFIFPPKIKDVLMISLSPIVTCVVVDVSEDDPDVQISWFVNNVEVHTAQTQTHREDYNSTLRVVSALPIQHQDWMSGKEFKCKVNNKDLPAPIERTISKPKGSVRAPQVYVLPPPEEEMTKKQVTLTCMVTDFMPEDIYVEWTNNGKTELNYKNTEPVLDSDGSYFMYSKLRVEKKNWVERNSYSCSVVHEGLHNHHTTKSFSRTPGK
light: DIVMSQSPKSMSMSVGERVALSCKASENVGTYVSWYQQKPEQSPKLLIYGASNRYTGVPDRFTGSGSATDFTLTISSVQAEDLADYYCGQSYSYPLTFGAGTKLELKRADAAPTVSIFPPSSEQLTSGGASVVCFLNNFYPKDINVKWKIDGSERQNGVLNSWTDQDSKDSTYSMSSTLTLTKDEYERHNSYTCEATHKTSTSPIVKSFNRNEC
B2: GPC1 ADC (conjugate)
heavy: B1 heavy
light: B1 light

Legend:
TE14 cells = test: ADC assay combining anti-GPC-1 antibody and MMAF binding secondary antibody, TE14 cells; type: cell-based
In short: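 TE14 […] cells (2000/well, RPMI1640 + 10% FBS) exposed to anti-GPC1 primary antibody (final 0–1.0 nM) plus 2 μg/ml MMAF-conjugated anti-mouse Fc Fab secondary for 6 days at 37° C, 5% CO2. Viability measured by CellTiter-Glo ATP luminescence.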

[1] = test system: TE8, HeLa, ME180, BxPC3, and T3M4 cell strains; test: Internalization assay on GPC1 ADC (01a033), various GPC1 positive cell strains; type: cell-based; settings: esophageal, pancreatic and cervical cancer derived cell strains, 37° C.
Protocol: (§1) Detection was performed on cells treated with GPC1 ADC (01a033) MMAF with anti-GPC1 mAb (biotin-labeled 02b006) and PE-labeled streptavidin.
(§2) TE8, HeLa, ME180, BxPC3, and T3M4 cell strains were detached and collected from a 10 cm plate using 0.02% EDTA. Cells were suspended in RPMI1640+10% FBS+100 U/ml penicillin+100 μg/ml streptomycin, and two 1.5 ml tubes were created at 1.0×10^6 cells/0.9 ml. To lower the internalization activity, the tubes were left standing on ice for 1 hour. 1 mg/ml of GPC1 ADC (01a033) MMAF was diluted to 24 μg/mL (160 nM) with ice-cooled RPMI1640+10% FBS+100 U/ml penicillin+100 μg/ml streptomycin. 100 μl of the ADC was added and suspended in the cell suspension and incubated on ice for 30 minutes to stain the antigens on the cell surface. After 30 minutes, the cell suspension was dispensed into 7 tubes each at 100 μl each. The cell suspension was separated into 4° C. incubation group and 37° C. incubation group in 14 tubes. The incubation times were 0.0 h, 1 h, 2 h, 3 h, 4 h, 6 h, 12 h, and 24 h. After reaching the incubation time, the cells were centrifuged at 1500 rpm at 4° C. for 5 minutes to remove the supernatant. The cells were washed with 100 μl of ice cooled PBS+0.2% BSA and subjected to centrifugation to wash the cells. Washing operation was performed three times in total. […]

TE14 cell strain = test: In vivo antitumor effect of unlabeled anti-GPC1 antibody, TE14 graft in SCID mice; set-up: species or system mouse
Protocol: Specifically, 2.0×10^6 cells of TE14 cell strain were subcutaneously grafted into female SCID mice (6 week old, n=9). When the tumor size reached about 100 mm^3 on about day 10 to 14 after grafting, administration of control mouse IgG2a (sigma, M7769) and anti-GPC1 antibody 01a033 each at 10 mg/kg was started, which were intraperitoneally administered on day 0, day 3, day 7, day 10, day 14, and day 17, with the day starting the administration considered 0 day. The tumor volume was measured on day 0, day 3, day 7, day 10, day 14, day 17, day 21, day 24, day 28, and day 31.

TE8 cells = test: Internalization assay on GPC1 ADC (01a033), TE8 cells; type: cell-based; settings: 0-24 h
Protocol: as §1, §2

BxPC3 cells = test: In vitro ADC assay, BxPC3 cells; type: cell-based, human; settings: BxPC3, 144 hours
Protocol: (§3) Preparation of a conjugate of mouse anti-Glypican-1 mAb (01a033), mouse IgG2a (biolegend #400224) as a control, and mc-vc-PAB-MMAF was commissioned to MORADEC. An anticancer agent was conjugated to a cysteine residue via a cleavable linker. The DAR (drug-antibody ratio) was as follows. GPC1-CL-MMAF DAR=3.8, mouse IgG2a-CL-MMAF DAR=4.1.
(§4) (1) The cells were seeded on Thermo Fisher Scientific's 96-well white plate (model no.: 136101) (90 μl cell suspension). RPMI1640+10% FBS+100 U/ml penicillin+100 μg/ml streptomycin was used as the medium. The cells were seeded in 60 wells, and 100 μL of medium was added to 36 wells, and cultured in a 5% CO2 incubator at 37° C. (2) The next day, 10 μL of ADC was added to the cells (total amount: 100 μL). (3) After 144 hours of culture, a CellTiter-Glo™ Luminescence Cell Viability Assay reagent (Promega) was added and mixed at 100 μL/well. (4) Measurements were taken with a plate reader. (5) Analysis was conducted with GraphPad Prism 6.
(§5) The IC50 values were calculated from the following equation (Hossain M M, Hosono-Fukao T, Tang R, Sugaya N, van Kuppevelt T H, Jenniskens G J, Kimata K, Rosen S D, Uchimura K (2010) Direct detection of HSulf-1 and HSulf-2 activities on extracellular heparan sulphate and their inhibition by PI-88. Glycobiology 20(2): 175-186.)
(§6) IC50=10^(Log [A][B]×(50−C)/(D−C)+Log [B]) […]

ME180 cells = test: In vitro ADC assay, ME180 cells; type: cell-based; settings: ME180, 144 hours
Protocol: as §3, §4, §5, §6

[2] = primary antibody plus MMAF secondary antibody

Row | Molecule | ADC activity (TE14 cells; primary antibody plus Fab-aMFc-CL-MMAF secondary antibody 2 μg/ml, 6 days) | EC50 values against TE14 cells (TE14 cells; [2]) | antitumor effect on TE14 (TE14 cells; [2]) | internalization activity [1] | ADCC activity (TE14 cell strain; concluded from the lack of in vivo antitumor effect) | antitumor effect (tumor volume, tumor weight day 31) (TE14 cell strain; unlabeled antibody 10 mg/kg ip day 0, 3, 7, 10, 14, 17) | residual amount of Glypican-1 on the cell surface (TE8 cells; TE8, incubation at 4° C.) | Glypican-1 remaining on the cell surface (TE8 cells; TE8, incubation at 37° C.) | effect of suppressing cell growth (BxPC3 cells) | effect of suppressing cell growth (ME180 cells)
1 | B1 | highest ADC activity | excellent EC50 values | particularly potent antitumor effect | high internalization activity | does not have ADCC activity | no antitumor effect | – | – | – | –
2 | B2 | – | – | – | – | – | – | hardly changed | decreases with the passage of incubation time | exhibits an effect of suppressing cell growth | exhibits an effect of suppressing cell growth
